According to US20120316071A1 (published 2012):

Experiments:
[1] = target: T1, rHuman IGF-1 sR, (IGF-1 sR), CF (R&D Systems Cat#391-GR) (human, UniProt P08069 31-932); experiment: ECL multispot (MSD), antigen spotted, 10 nM Fab; blank spot of this row 204
T1 construct: Bought recombinant soluble receptor; also called insulin-like growth factor-1 soluble receptor

[2] = target: T2, rHuman P-Cadherin/Fc Chimera, CF (R&D Systems Cat#861-PC) (human, UniProt P22223 108-654); experiment: as above
T2 construct: Bought recombinant protein; Fc part of the bought chimera not given

[3] = target: T3, rHuman Erythropoietin R/Fc Chimera, CF (R&D Systems Cat#963-ER) (human, UniProt P19235 25-250); experiment: as above
T3 construct: Bought recombinant protein; also called EPO R; EPO R/Fc; Fc part of the bought chimera not given
T3 sequence (looked up): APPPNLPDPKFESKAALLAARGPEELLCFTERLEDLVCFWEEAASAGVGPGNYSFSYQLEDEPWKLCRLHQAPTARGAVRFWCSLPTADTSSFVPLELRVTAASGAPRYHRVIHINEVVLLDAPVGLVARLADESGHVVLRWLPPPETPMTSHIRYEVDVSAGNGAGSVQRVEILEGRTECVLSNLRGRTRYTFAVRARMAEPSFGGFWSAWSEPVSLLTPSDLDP

[4] = target: T4, rHuman ErbB2/Fc Chimera, CF (R&D Systems Cat#1129-ER) (human, UniProt P04626 23-652); experiment: as above
T4 construct: Bought recombinant protein; also called human epidermal growth factor 2 receptor; Fc part of the bought chimera not given

[5] = target: T5, rHuman EGF R/Fc Chimera, CF (R&D Systems Cat#344-ER) (human, UniProt P00533 25-645); experiment: as above
T5 construct: Bought recombinant protein; also called epidermal growth factor receptor; Fc part of the bought chimera not given

[6] = target: T6, rHuman HGF R/c-MET/Fc Chimera, CF (R&D Systems Cat#358-MT/CF) (human, UniProt P08581 25-932); experiment: as above
T6 construct: Bought recombinant protein; also called HGF R/Fc; hepatocyte growth factor receptor; Fc part of the bought chimera not given

[7] = target: T7, rHuman Notch-1/Fc Chimera, CF (R&D Systems Cat#3647-TK) (human, UniProt P46531 19-526); experiment: as above
T7 construct: Bought recombinant protein; Fc part of the bought chimera not given

[8] = target: T8, rHuman CD44/Fc Chimera, CF (R&D Systems Cat#3660-CD) (human, UniProt P16070 21-220); experiment: as above
T8 construct: Bought recombinant protein; Fc part of the bought chimera not given

[9] = target: T1, rHuman IGF-1 sR, (IGF-1 sR), CF (R&D …); experiment: ECL multispot (MSD), antigen spotted, 10 nM Fab; blank spot of this row 239
[10] = target: T2, rHuman P-Cadherin/Fc Chimera, CF (R&D …); experiment: as above
[11] = target: T3, rHuman Erythropoietin R/Fc Chimera, CF …; experiment: as above
[12] = target: T4, rHuman ErbB2/Fc Chimera, CF (R&D …); experiment: as above
[13] = target: T5, rHuman EGF R/Fc Chimera, CF (R&D …); experiment: as above
[14] = target: T6, rHuman HGF R/c-MET/Fc Chimera, CF (R&D …); experiment: as above
[15] = target: T7, rHuman Notch-1/Fc Chimera, CF (R&D …); experiment: as above
[16] = target: T8, rHuman CD44/Fc Chimera, CF (R&D Systems …); experiment: as above
[17] = target: T1, rHuman IGF-1 sR, (IGF-1 sR), CF (R&D …); experiment: ECL multispot (MSD), antigen spotted, 10 nM Fab; blank spot of this row 271
[18] = target: T2, rHuman P-Cadherin/Fc Chimera, CF (R&D …); experiment: as above
[19] = target: T3, rHuman Erythropoietin R/Fc Chimera, CF …; experiment: as above
[20] = target: T4, rHuman ErbB2/Fc Chimera, CF (R&D …); experiment: as above
[21] = target: T5, rHuman EGF R/Fc Chimera, CF (R&D …); experiment: as above
[22] = target: T6, rHuman HGF R/c-MET/Fc Chimera, CF (R&D …); experiment: as above
[23] = target: T7, rHuman Notch-1/Fc Chimera, CF (R&D …); experiment: as above
[24] = target: T8, rHuman CD44/Fc Chimera, CF (R&D Systems …); experiment: as above

T6 sequence (P08581 25-932, change not shown): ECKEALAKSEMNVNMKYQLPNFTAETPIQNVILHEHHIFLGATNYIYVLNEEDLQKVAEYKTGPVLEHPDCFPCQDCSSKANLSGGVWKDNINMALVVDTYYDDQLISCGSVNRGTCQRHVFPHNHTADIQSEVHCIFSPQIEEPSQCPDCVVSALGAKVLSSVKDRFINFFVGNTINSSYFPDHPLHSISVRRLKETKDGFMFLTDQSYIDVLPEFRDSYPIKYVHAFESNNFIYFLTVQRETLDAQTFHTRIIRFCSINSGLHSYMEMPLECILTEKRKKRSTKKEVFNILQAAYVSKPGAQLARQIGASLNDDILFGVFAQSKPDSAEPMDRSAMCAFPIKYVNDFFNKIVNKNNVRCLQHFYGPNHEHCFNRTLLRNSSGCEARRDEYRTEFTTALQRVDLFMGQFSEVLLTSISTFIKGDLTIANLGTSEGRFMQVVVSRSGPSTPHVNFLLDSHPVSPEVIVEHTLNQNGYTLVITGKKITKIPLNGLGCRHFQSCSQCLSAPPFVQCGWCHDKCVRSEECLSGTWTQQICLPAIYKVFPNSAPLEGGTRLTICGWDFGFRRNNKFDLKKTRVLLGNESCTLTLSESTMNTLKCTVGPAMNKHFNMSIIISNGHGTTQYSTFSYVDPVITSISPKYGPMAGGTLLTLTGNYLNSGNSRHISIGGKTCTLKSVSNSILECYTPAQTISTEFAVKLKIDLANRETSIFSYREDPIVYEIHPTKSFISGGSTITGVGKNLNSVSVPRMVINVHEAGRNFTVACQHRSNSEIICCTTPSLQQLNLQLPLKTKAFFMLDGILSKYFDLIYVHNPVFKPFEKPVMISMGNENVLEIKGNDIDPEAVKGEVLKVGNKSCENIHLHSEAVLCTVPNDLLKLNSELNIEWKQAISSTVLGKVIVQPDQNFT

B1: Fab VH1-46_IGHD6-6*01_IGHJ1*01 S102A/S103P/S104F (APF) & L6_IGKJ1*01 (Fab, V domains shown)
VH: QVQLVQSGAEVKKPGASVKVSCKASGYTFTSYYMHWVRQAPGQGLEWMGIINPSGGSTSYAQKFQGRVTMTRDTSTSTVYMELSSLRSEDTAVYYCAREEYAPFSAEYFQHWGQGTLVTVSS
VL: not shown
notes: Tested as Fab made in E. coli; The heavy chain was cloned in Plasmid A (CH1 constant region, His6 and Flag tags); The kappa light chain was cloned in Plasmid C (kappa CL); also called APF triple mutant; H:APF & L:wt
Binder B1 has an ECL signal [1] of 197, an ECL signal [2] of 208 and an ECL signal [3] of 329. The ECL signal [4] was 157, the ECL signal [5] was 237 and the ECL signal [6] was 272. It also gave an ECL signal [7] of 334, an ECL signal [8] of 96 and an ECL signal [9] of 174. For the same binder, the ECL signal [10] was 256, the ECL signal [11] was 285 and the ECL signal [12] was 340. The ECL signal [13] was 216, the ECL signal [14] was 171 and the ECL signal [15] was 130. For the same binder, the ECL signal [16] was 236, the ECL signal [17] was 241 and the ECL signal [18] was 297. It also gave an ECL signal [19] of 304, an ECL signal [20] of 330 and an ECL signal [21] of 272. The ECL signal [22] was 306, the ECL signal [23] was 257 and the ECL signal [24] was 189.
